Results: article PMC7923543, “Molecular mechanisms of assembly and TRIP13-mediated remodeling of the human Shieldin complex” (Proceedings of the National Academy of Sciences of the …, 2021)

How the values were obtained:
[1] = target: T1, REV7 (R124A mutant), full-length (human, UniProt Q9UI95 1-211, R124A); experiment: crystal structure; coexpressed, co-purified SHLD3s–REV7(R124A) complex; hanging drop, 0.2 M ammonium acetate, 0.1 M Na citrate pH 5.6, 30% PEG4000, 20 °C; 2.7 Å; conditions: both partners purified
T1 construct: REV7 (MAD2L2, MAD2B), human, 211 residues, R124A; R124A was introduced to improve crystallization; also called MAD2L2; MAD2B; source: E. coli BL21 CodonPlus(DE3)-RIL, coexpressed with the SHLD3 fragment, purified (HisTrap, HiTrap Q, Superdex 200); not shown: His6-SUMO, N-terminal, cleaved

[2] = target: T1, REV7 (R124A mutant), full-length; experiment: SEC-MALS; coexpressed, co-purified SHLD3(35–74)–REV7(R124A) complex; Superdex200 10/300, 20 mM Tris·HCl pH 7.5, 150 mM NaCl, 2 mM DTT; conditions: both partners purified
[3] = target: the molecule itself; experiment: cryo-EM structure; reconstituted complexes with TRIP13(E253Q) and ATPγS, 0.3 mg/mL, Titan Krios 300 kV, RELION3
REV7 = target: T2, REV7 (human, UniProt Q9UI95 1-211); experiment: crystal structure; SHLD2.3–REV7_(4) complex (peak Q2); hanging drop, 0.1 M Na acetate pH 5.6, 1.5 M Na formate, 20 °C; 3.8 Å; conditions: both partners purified
T2 construct: REV7 (MAD2L2, MAD2B), human, 211 residues; also called MAD2L2; MAD2B; not shown: His6-SUMO, N-terminal, cleaved
T2 sequence (Q9UI95 whole entry): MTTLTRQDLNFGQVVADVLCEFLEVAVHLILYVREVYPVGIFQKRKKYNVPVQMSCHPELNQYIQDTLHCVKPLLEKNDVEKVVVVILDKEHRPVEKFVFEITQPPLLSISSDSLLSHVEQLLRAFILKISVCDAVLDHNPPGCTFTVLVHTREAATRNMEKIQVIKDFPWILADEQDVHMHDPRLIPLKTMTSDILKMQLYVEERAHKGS

T1 sequence (Q9UI95 whole entry R124A, the tested form may be a part): as the sequence (Q9UI95 whole entry) above, with R124A counted along it

B1: SHLD3s fusion protein (SHLD3 residues 35 to 58 and REV3 residues 1887 to 1894) (other, UniProt Q6ZNX1 35-58, looked up)
chain: LSRFIPWFPYDGSKLPLRPKRSPPREEIMATL
notes: SHLD3, human, residues 35-58; also called SHLD3_(35–58)
binding result [1]: binds

B2: SHLD3 35- to 74-residue fragment (domain or fragment, human, UniProt Q6ZNX1 35-74, looked up)
chain: LSRFIPWFPYDGSKLPLRPKRSPPVISEEAAEDVKQYLTI
notes: SHLD3, human, 250 residues; residues 35-74; also called SHLD3_(35–74); source: E. coli, coexpressed with REV7(R124A), purified as the complex
binding result [2]: binds

B3: TRIP13 catalytic mutant (E253Q) hexamer (enzyme)
chain: MDEAVGDLKQALPCVAESPTVHVEVHQRGSSTAKKEDINLSVRKLLNRHNIVFGDYTWTEFDEPFLTRNVQSVSIIDTELKVKDSQPIDLSACTVALHIFQLNEDGPSSENLEEETENIIAANHWVLPAAEFHGLWDSLVYDVEVKSHLLDYVMTTLLFSDKNVNSNLITWNRVVLLHGPPGTGKTSLCKALAQKLTIRLSSRYRYGQLIEINSHSLFSKWFSESGKLVTKMFQKIQDLIDDKDALVFVLIDQVESLTAARNACRAGTEPSDAIRVVNAVLTQIDQIKRHSNVVILTTSNITEKIDVAFVDRADIKQYIGPPSAAAIFKIYLSCLEELMKCQIIYPRQQLLTLRELEMIGFIENNVSKLSLLLNDISRKSEGLSGRVLRKLPFLAHALYVQAPTVTIEGFLQALSLAVDKQFEERKKLAAYI
notes: TRIP13, AAA+ ATPase, E253Q; used with ATPγS; also called TRIP13(E253Q); TRIP13 (E253Q); source: E. coli BL21 CodonPlus(DE3)-RIL, purified (HiTrap Q, Superdex 200)
stoichiometry N [3]: 6

B4: SHLD2 fragment (residues 1 to 19), the SHLD2 part of SHLD2.3 (domain or fragment, human, UniProt Q86V20 1-19, looked up)
chain: MSGGSQVHIFWGAPIAPLK
notes: In the crystal it stood on one chain with SHLD3(1-58); written apart for the SHLD2–SHLD3 and SHLD2–REV7 contacts; also called SHLD2(residues 1 to 19); source: E. coli BL21 CodonPlus(DE3)-RIL, as part of the SHLD2.3 fusion chain, purified with REV7
binding result (REV7): binds
